Measured values as given in US20140199706A1.
Substitutions are numbered along the chain they refer to. In names and notes the source's numbering stands. Read-outs that look alike come from different tables or passages of the source.

B1: Ubp6 (protein)
chain: MSGETFEFNIRHSGKVYPITLSTDATSADLKSKAEELTQVPSARQKYMVKGGLSGEESIKIYPLIKPGSTVMLLGTPDANLISKPAKKNNFIEDLAPEQQVQQFAQLPVGFKNMGNTCYLNATLQALYRVNDLRDMILNYNPSQGVSNSGAQDEEIHKQIVIEMKRCFENLQNKSFKSVLPIVLLNTLRKCYPQFAERDSQGGFYKQQDAEELFTQLFHSMSIVFGDKFSEDFRIQFKTTIKDTANDNDITVKENESDSKLQCHISGTTNFMRNGLLEGLNEKIEKRSDLTGANSIYSVEKKISRLPKFLTVQYVRFFWKRSTNKKSKILRKVVFPFQLDVADMLTPEYAAEKVKVRDELRKVEKEKNEKEREIKRRKFDPSSSENVMTPREQYETQVALNESEKDQWLEEYKKHFPPNLEKGENPSCVYNLIGVITHQGANSESGHYQAFIRDELDENKWYKFNDDKVSVVEKEKIESLAGGGESDSALILMYKGFGL
B2: Ubp6-C118A (protein)
chain: B1 chain with C118A

How the values were obtained:
yeast proteasome (26S) [1] = test system: yeast proteasome (26S)
[2] = target: yeast proteasome (26S) (S. cerevisiae (yeast)); experiment: cell-based or functional assay
[3] = target: proteasome regulatory particle (RP) purified from a ubp6Δ strain
yeast proteasome (26S) [4] = target: yeast proteasome (26S); remark: listed apart in the source

Molecule | cyclin B degradation assay (yeast proteasome (26S) [1]) | inhibition of degradation of ub-cyclin B (quantitative mass spectrometry, 20-minute incubation) [2] | ubiquitin chain shortening of ub-cyclin B conjugates [3] | cyclin B degradation by ubp6Δ proteasomes after add-back of recombinant Ubp6 (yeast proteasome (26S) [4]) | deubiquitination of cyclin B (yeast proteasome (26S) [4]) | cyclin B degradation assay (yeast proteasome (26S) [4])
Ubp6-ublΔ | Deletion of the Ubl domain rendered Ubp6 non-inhibitory in the cyclin B degradation assay (FIG. 4B) | – | – | – | – | –
B1 | – | 70% | addition of purified Ubp6 to RP resulted in chain shortening, although to a lesser extent than with 26S proteasomes (FIG. 6A) | a marked inhibition of cyclin B degradation (FIG. 1F) was observed | when Ubp6 is incubated in the presence of cyclin B, but without proteasomes, no deubiquitination of cyclin B is observed (FIG. 4D) | –
B2 | – | 70% | – | – | – | a catalytically inactive point mutant of Ubp6 (Ubp6-C118A) proved competent for inhibition (FIG. 4B)
